Assay results: PMC12372851

Biological target: 3Flag-Lef1 (zebrafish) (UniProt Q9W7C0)
Assay: EMSA
Details: 100 mM Hepes pH 7.5, 100 mM NaCl, 50 mM KCl, 1 mM DTT, 1 mM EDTA, 5% glycerol, 30 min at 25 °C

Sequence of UniProt Q9W7C0 (Q9W7C0 entry or part of it): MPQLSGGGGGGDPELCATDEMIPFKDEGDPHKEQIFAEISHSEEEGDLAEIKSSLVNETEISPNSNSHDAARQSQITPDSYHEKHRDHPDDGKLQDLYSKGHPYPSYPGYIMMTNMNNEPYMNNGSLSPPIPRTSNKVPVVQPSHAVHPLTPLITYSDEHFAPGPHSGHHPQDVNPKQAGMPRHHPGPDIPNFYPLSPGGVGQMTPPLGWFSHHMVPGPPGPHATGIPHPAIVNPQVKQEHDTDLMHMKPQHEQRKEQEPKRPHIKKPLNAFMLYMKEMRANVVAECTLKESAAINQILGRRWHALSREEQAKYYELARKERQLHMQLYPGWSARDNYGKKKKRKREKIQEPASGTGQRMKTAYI

## CACCACTGATAAAAACTATTAAAGATCAGTCTGGGAGTCACTACTTTACTACTTGGTTTCATCAAAGTATTAAAAAAAGTGATGCGCTGCCTTCTTTAAATGCGTTCAC (double strand) [eya2 promoter WT EMSA probe]
  binding: binds
